# Measured values: patent US20230390362A1, “USE OF TRIGONAL AGONIST HAVING ACTIVITIES TO ALL OF GLUCAGON, GLP-1, AND GIP RECEPTORS IN TREATMENT OF SEQUELAE FOLLOWING RESPIRATORY INFECTIOUS DISEASES” (HANMI PHARM. CO., LTD., priority 2020, published 2023)
# Substitutions are numbered along the chain they refer to. Positions of bridges follow the written chain, without caps; N, C: chain ends. Non-standard residues stand in square brackets, D forms with d. No end group written: not given here. *: point of attachment. Acetyl(2-(4-imidazolyl)) = O=C(Cc1c[nH]cn1)*; Aib = CC(C)(N)C(=O)O
# T1: human GIP receptor (human, UniProt P48546 22-466)
# T1 sequence (looked up): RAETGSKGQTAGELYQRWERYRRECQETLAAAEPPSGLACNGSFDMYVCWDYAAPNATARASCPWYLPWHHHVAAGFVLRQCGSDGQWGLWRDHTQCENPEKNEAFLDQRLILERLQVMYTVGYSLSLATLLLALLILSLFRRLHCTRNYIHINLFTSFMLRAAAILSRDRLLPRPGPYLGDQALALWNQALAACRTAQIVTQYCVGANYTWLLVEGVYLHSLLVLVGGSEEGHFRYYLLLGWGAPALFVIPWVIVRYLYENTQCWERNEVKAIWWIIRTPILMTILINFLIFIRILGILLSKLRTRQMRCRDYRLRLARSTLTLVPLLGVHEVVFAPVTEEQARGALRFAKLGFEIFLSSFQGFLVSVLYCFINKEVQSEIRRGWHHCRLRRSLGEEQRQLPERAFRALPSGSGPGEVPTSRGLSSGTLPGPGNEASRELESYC
# B1: trigonal agonist of SEQ ID NO: 5 (peptide)
# peptide: H[Aib]QGTFTSDVSSYLLGQQQKEFIAWLVKGGGPSSGAPPPSC
# B2: trigonal agonist of SEQ ID NO: 38 (peptide)
# peptide: {Acetyl(2-(4-imidazolyl))}-[Aib]QGTFTSDKSSYLDERAAQDFVQWLLDGGPSSGAPPPSS
# B3: trigonal agonist of SEQ ID NO: 41 (peptide)
# peptide: H[Aib]QGTFTSDKSKYLDECAAQDFVQWLLDGGPSSGAPPPS
# B4: trigonal agonist of SEQ ID NO: 49 (peptide)
# peptide: {Acetyl(2-(4-imidazolyl))}-[Aib]QGTFTSDYSICMDEIHQKDFVNWLLNTK
# modifications: bridge 15-19
# B5: trigonal agonist of SEQ ID NO: 52 (peptide)
# peptide: H[Aib]QGTFTSDYSKYLDEKRQKEFVQWLLDTC
# modifications: bridge 16-20
# B6: trigonal agonist of SEQ ID NO: 40 (peptide)
# peptide: H[Aib]QGTFTSDKSKYLDERACQDFVQWLLDGGPSSGAPPPS
# B7: trigonal agonist of SEQ ID NO: 36 (peptide)
# peptide: H[Aib]QGTFTSDYSKYLCEKRQKEFVQWLLNGGPSSGAPPPSG
# modifications: bridge 16-20
# B8: trigonal agonist of SEQ ID NO: 34 (peptide)
# peptide: H[Aib]QGTFTSDYSKYLDEKRQKEFVNWLLAQKC
# modifications: bridge 16-20
# B9: trigonal agonist of SEQ ID NO: 44 (peptide)
# peptide: HGQGTFTSDCSKQLDGQAAQEFVAWLLAGGPSSGAPPPS
# B10: trigonal agonist of SEQ ID NO: 45 (peptide)
# peptide: B9 peptide with Q13Y, L14M, E21D
# B11: trigonal agonist of SEQ ID NO: 46 (peptide)
# peptide: B9 peptide with Q13Y, G16E, A18H
# B12: trigonal agonist of SEQ ID NO: 47 (peptide)
# peptide: B9 peptide with Q13Y, A18R
# B13: trigonal agonist of SEQ ID NO: 48 (peptide)
# peptide: B9 peptide with Q13Y, A18R, E21D, A24N
# B14: trigonal agonist of SEQ ID NO: 58 (peptide)
# peptide: H[Aib]QGTFTSDYSKYLDEKRQKEFVQWLLNTKC
# modifications: bridge 16-20
# B15: trigonal agonist of SEQ ID NO: 42 (peptide)
# peptide: Y[Aib]QGTFTSDYSKYLDEKRAKEFVQWLLDHHPSSGQPPPSC
# modifications: bridge 16-20
# B16: trigonal agonist of SEQ ID NO: 55 (peptide)
# peptide: H[Aib]QGTFTSDYSIAMDEIHQKDFVNWLLAQC
# modifications: bridge 16-20
# B17: trigonal agonist of SEQ ID NO: 6 (peptide)
# peptide: H[Aib]QGTFTSDVSSYLDGQAAKEFVAWLLKGC
# B18: trigonal agonist of SEQ ID NO: 54 (peptide)
# peptide: H[Aib]EGTFTSDYSIAMDEIHQKDFVDWLLAEC
# modifications: bridge 16-20
# B19: trigonal agonist of SEQ ID NO: 4 (peptide)
# peptide: H[Aib]QGTFTSDVSSYLLGQQQKEFIAWLVKGC
# B20: trigonal agonist of SEQ ID NO: 57 (peptide)
# peptide: H[Aib]QGTFTSDYSIAMDEIHQKDFVNWLLNTC
# modifications: bridge 16-20
# B21: trigonal agonist of SEQ ID NO: 56 (peptide)
# peptide: H[Aib]QGTFTSDYSKYLDEKRQKEFVNWLLAQC
# modifications: bridge 16-20
# B22: trigonal agonist of SEQ ID NO: 50 (peptide)
# peptide: H[Aib]QGTFTSDYSKYLDEKRAKEFVQWLLDHHPSSGQPPPSC
# modifications: bridge 16-20
# B23: trigonal agonist of SEQ ID NO: 51 (peptide)
# peptide: H[Aib]QGTFTSDYSKYLDEKRQKEFVQWLLNTC
# modifications: bridge 16-20
# B24: trigonal agonist of SEQ ID NO: 43 (peptide)
# peptide: Y[Aib]QGTFTSDYSKYLDEKRAKEFVQWLLDHHCSSGQPPPS
# modifications: bridge 16-20
# B25: trigonal agonist of SEQ ID NO: 53 (peptide)
# peptide: H[Aib]EGTFTSDYSIAMDEIHQKDFVNWLLAQC
# modifications: bridge 16-20
# B26: trigonal agonist of SEQ ID NO: 1 (peptide)
# peptide: H[Aib]QGTFTSDVSSYLDGQAAKEFIAWLVKGC
# B27: trigonal agonist of SEQ ID NO: 35 (peptide)
# peptide: H[Aib]QGTFTSDYSIAMDEIHQKDFVNWLLNTKC
# modifications: bridge 16-20
# B28: trigonal agonist of SEQ ID NO: 39 (peptide)
# peptide: H[Aib]QGTFTSDYSKYLDGQHAQCFVAWLLAGGGPSSGAPPPS
# B29: trigonal agonist of SEQ ID NO: 59 (peptide)
# peptide: {Acetyl(2-(4-imidazolyl))}-[Aib]QGTFTSDYSICMDEKHQKDFVNWLLNTK
# modifications: bridge 15-19
# B30: trigonal agonist of SEQ ID NO: 37 (peptide)
# peptide: H[Aib]QGTFTSDYSKYLDECRQKEFVQWLLNGGPSSGAPPPSG
# modifications: bridge 16-20
# Biological target: human GLP-1 receptor (human, UniProt P43220 24-463)
# Test: cell-based or functional assay
row,Binder,"In vitro activity relative to native peptide (%), vs. GLP-1 (cAMP EC50)"
1,B1,42.1%
2,B2,2.3%
3,B3,34.3%
4,B4,29.8%
5,B5,44.1%
6,B6,75.2%
7,B7,37.4%
8,B8,19.1%
9,B9,1.3%
10,B10,6.6%
11,B11,1.4%
12,B12,2.4%
13,B13,1.5%
14,B14,39.1%
15,B15,33.9%
16,B16,27.1%
17,B17,17%
18,B18,30.6%
19,B19,8.5%
20,B20,11.7%
21,B21,57.9%
22,B22,67.4%
23,B23,14.4%
24,B24,12.6%
25,B25,161%
26,B26,3.2%
27,B27,7.5%
28,B28,13.9%
29,B29,40.3%
30,B30,236%

# Biological target: T1, human GIP receptor
# Test: cell-based or functional assay
row,Binder,"In vitro activity relative to native peptide (%), vs. GIP (cAMP EC50)"
1,B1,< 0.1%
2,B3,< 0.1%
3,B4,3.3%
4,B5,0.3%
5,B6,< 0.1%
6,B7,0.2%
7,B8,0.6%
8,B9,< 0.1%
9,B10,< 0.1%
10,B11,< 0.1%
11,B12,< 0.1%
12,B13,< 0.1%
13,B14,0.2%
14,B15,7.8%
15,B16,2.4%
16,B17,< 0.1%
17,B18,0.1%
18,B19,< 0.1%
19,B20,0.3%
20,B21,0.8%
21,B22,2.7%
22,B23,0.1%
23,B24,3.7%
24,B25,1.3%
25,B26,< 0.1%
26,B27,1.3%
27,B28,< 0.1%
28,B29,4%
29,B30,2.2%

# Biological target: human GCG receptor (human, UniProt P47871 26-477)
# Test: cell-based or functional assay
# Sequence of human GCG receptor (P47871 26-477): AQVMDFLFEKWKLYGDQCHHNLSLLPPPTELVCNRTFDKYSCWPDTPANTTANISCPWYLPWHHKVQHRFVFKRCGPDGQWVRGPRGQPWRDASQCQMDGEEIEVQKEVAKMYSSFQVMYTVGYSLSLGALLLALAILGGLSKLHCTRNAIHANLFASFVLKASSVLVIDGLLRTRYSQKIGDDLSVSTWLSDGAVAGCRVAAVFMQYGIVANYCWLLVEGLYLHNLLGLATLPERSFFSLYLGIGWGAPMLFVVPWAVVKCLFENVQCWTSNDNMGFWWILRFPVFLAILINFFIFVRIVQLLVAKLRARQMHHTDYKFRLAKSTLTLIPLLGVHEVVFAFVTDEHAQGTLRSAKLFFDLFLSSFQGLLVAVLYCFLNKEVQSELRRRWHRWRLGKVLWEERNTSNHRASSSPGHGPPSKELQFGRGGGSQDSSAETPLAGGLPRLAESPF
row,Binder,"In vitro activity relative to native peptide (%), vs. Glucagon (cAMP EC50)"
1,B1,< 0.1%
2,B3,< 0.1%
3,B4,< 0.1%
4,B5,7.5%
5,B6,< 0.1%
6,B7,0.39%
7,B8,0.92%
8,B9,< 0.1%
9,B10,< 0.1%
10,B11,< 0.1%
11,B12,< 0.1%
12,B13,< 0.1%
13,B14,2.6%
14,B15,206%
15,B16,0.7%
16,B17,< 0.1%
17,B18,1.4%
18,B19,< 0.1%
19,B20,< 0.1%
20,B21,4.9%
21,B22,50.5%
22,B23,2%
23,B24,88.4%
24,B25,8.4%
25,B26,< 0.1%
26,B27,< 0.1%
27,B28,0.53%
28,B29,< 0.1%
29,B30,6.21%
